B1: recombinant human lens thioltransferase (protein)
chain: AQEFVNCKIQPGKVVVFIKPTCPFCVKTQELLSQLPFKEGLLEFVDITATSDTNEIQDYLQQLTGARTVPRVFIGKECIGGCTDLESMHKRGELLTRLQQIGALK
B2: recombinant human lens thioltransferase, P12309 2-106 (enzyme)
chain: B1 chain

Legend:
[1] = biological target: BSA-GSH mixed disulfide, P02769
[2] = biological target: G3PD from H2O2 (0.5 mM) pretreated rabbit lens epithelial cells
[3] = biological target: alpha crystallin-GSH mixed disulfide
[4] = biological target: alpha crystalline-cystine mixed disulfide
[5] = biological target: gamma crystallin-GSH mixed disulfide
[6] = biological target: protein-cysteine mixed disulfides (PSSC); experiment: cell-based or functional assay

Sequence of BSA-GSH mixed disulfide, P02769 (P02769 25-607): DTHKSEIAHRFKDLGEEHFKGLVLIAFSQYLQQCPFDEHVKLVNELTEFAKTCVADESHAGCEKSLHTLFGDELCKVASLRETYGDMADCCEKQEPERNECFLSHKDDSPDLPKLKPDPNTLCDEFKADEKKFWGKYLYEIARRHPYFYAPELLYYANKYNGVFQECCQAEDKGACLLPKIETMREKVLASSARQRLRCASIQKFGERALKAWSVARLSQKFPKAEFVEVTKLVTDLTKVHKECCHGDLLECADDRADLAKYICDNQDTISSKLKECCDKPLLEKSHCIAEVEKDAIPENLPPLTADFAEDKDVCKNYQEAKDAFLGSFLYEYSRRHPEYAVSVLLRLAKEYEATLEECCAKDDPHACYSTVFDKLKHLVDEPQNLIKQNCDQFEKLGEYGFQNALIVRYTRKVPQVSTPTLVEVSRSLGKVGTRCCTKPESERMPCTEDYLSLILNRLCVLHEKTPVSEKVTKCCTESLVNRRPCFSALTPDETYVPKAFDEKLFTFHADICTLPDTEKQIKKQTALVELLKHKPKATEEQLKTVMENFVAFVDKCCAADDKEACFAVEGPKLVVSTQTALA

Binder | dethiolation of 3H-PSSG (nmol dethiolated per µg thioltransferase protein; TCA-soluble radioactivity) [1] [nmol/µg thioltransferase] | regeneration of G3PD activity (percent of activity regenerated by 30 mM DTT) [2] | dethiolation of 3H-PSSG (nmol dethiolated per µg thioltransferase protein; TCA-soluble radioactivity) [3] [nmol/µg thioltransferase] | dethiolation of 14C-PSSC [4] | dethiolation of 3H-PSSG (nmol dethiolated per µg thioltransferase protein; TCA-soluble radioactivity) [5] [nmol/µg thioltransferase] | substrate preference in dethiolation [5] | dethiolation of PSSC relative to PSSG [6] [%]
B1 | 0.3 | regeneration of G3PD from H2O2 (0.5 mM) pretreated rabbit cells by recombinant human lens thioltransferase | 0.6 | alpha crystalline-cystine mixed disulfide could not be dethiolated by lens thioltransferase | 1.15 | Gamma crystallin-thiol mixed disulfide appears to be the favorable substrate for lens thioltransferase | 
B2 |  |  |  |  |  |  | 50 to 60

From US6379664
